In patent EP2431054A2 (Human Genome Sciences, Inc., dated 2012):

B1: TACI-Fc fusion protein (Fc fusion, not shown: a dimerising Fc or GST)
chain: MSGLGRSRRGGRSRVDQEERFPQGLWTGVAMRSCPEEQYWDPLLGTCMSCKTICNHQSQRTCAAFCRSLSCRKEQGKFYDHLLRDCISCASICGQHPKQCAYFCENKLRSPVNLPPELRRQRSGEVENNSDNSGRYQGLEHRGSEASPALPGLKLSADQ
B2: TNF-epsilon, trimeric form isolated by size exclusion chromatography (ligand)
chain: AVLTQKQKNDSDVTEVMWQPALRRGRGLQAQGYGVRIQDAGVYLLYSQVLFQDVTFTMGQVVSREGQGRQETLFRCIRSMPSHPDRAYNSCYSAGVFHLHQGDILSVIIPRARAKLNLSPHGTFLGFVKL
notes: This is the protein flowed over the TACI-Fc chip

Columns and labels:
[1] = target: FLAG-epitope-tagged TNF-epsilon (in conditioned medium) (human) (UniProt O75888); assay: co-immunoprecipitation with M2 anti-FLAG antibody, Western detection with anti-FLAG antibody
TACI-Fc fusion protein = target: T1, TACI-Fc fusion protein (Homo sapiens (Human), UniProt O14836 1-159); assay: BIAcore (SPR), TACI-Fc amine-coupled to CM5 chip, TNF-epsilon as analyte
T1 construct: The dimeric form was enriched by size exclusion; also called full-length TACI-Fc; soluble TACI-Fc; not shown: Fc portion from vector pC4-Fc
T1 sequence: B1 chain

Row | Binder | percent of the TNF-epsilon present in the conditioned medium found in the immunoprecipitated TACI-Fc-TNF-epsilon complex [1] | Kd (TACI-Fc fusion protein)
1 | B1 | 20% | –
2 | B2 | – | 6 nM
